Experimental findings from patent US20090162869A1 (RIKEN, published 2009) are described below.

The target in the experiment is T1, DAP12, endogenous in mouse cells (splenic cells, FL-PDC) (mouse, UniProt O54885 22-114, phosphorylated in CpG-A-stimulated FL-PDC (sites not given)).
T1 construct: whole, on cells
Briefly: association in CpG-A-stimulated FL-PDC (FIG. 20); method not described.

T1 sequence (O54885 22-114): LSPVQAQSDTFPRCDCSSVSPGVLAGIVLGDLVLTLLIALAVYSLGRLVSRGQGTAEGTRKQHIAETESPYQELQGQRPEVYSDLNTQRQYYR

B1: membrane molecule (A) of the present invention (PDC-TREM), mouse, full length (receptor)
chain: QNPELLRTQEGETVSVTCWYDSLYHSSEKIWCKQIDNLCYPFVSKSAEKPRFLIQQSSRFNFFTVTMTKLKMSDSGIYHCGIVANNTSVYLRNIHLVVSKGSSVVSTPDIIPATRLTKLPTLITTKHSPSDTTTTRSLPQPTTVVSSPDPRVIIINGTDADRGFVSSVTIPVVCGLLSKTLVFTVLFIVTQKSFGRQAMKAHNSNS
notes: also called the present membrane molecule
As to B1, the binding result is listed as “binds”.
